This note sets out measurements from paper PMC3578790, “Tight Interconnection and Multi-Level Control of Arabidopsis MYB44 in MAPK Cascade Signalling”.

In this data set the target is MYB44 (Arabidopsis thaliana? (Arabidopsis, …, UniProt Q9FDW1 1-305)). The experiment in a line: EMSA; no competitor; unlabelled MBSII 100x blocks the shift; unchanged with GST-MPK3 and/or GST-MKK4, with or without 0.5 mM ATP; 10 mM Tris pH 8.0, 5 mM MgCl2, 100 mM KCl, 0.02% Triton X-100, 0.1 mg/ml BSA, 0.25% Tween, 2.5 mM DTT, 3 ng/ul poly(dIdC); 30 min room temperature; 5% PAGE in 0.5x TBE or TAE (TAE main) at 4 C. The conditions noted are these: protein: recombinant; label: 5' Dy782 (Methods; called IRDye in Results); (only one strand printed).
Sequence of MYB44 (Arabidopsis thaliana? (Q9FDW1 whole entry): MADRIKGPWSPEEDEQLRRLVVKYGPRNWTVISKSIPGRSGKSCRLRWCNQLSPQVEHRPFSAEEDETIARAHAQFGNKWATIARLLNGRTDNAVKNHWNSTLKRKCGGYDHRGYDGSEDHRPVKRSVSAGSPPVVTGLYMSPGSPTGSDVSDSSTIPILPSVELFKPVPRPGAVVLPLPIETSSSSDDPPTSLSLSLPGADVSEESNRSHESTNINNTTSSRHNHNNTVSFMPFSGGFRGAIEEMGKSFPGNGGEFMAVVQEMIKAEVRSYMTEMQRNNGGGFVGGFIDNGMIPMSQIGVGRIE

B1: MBSII (dsDNA)
DNA 1: AGCTTCAAAAGTTAGTTACG
DNA 2: CGTAACTAACTTTTGAAGCT
B1: the binding result is recorded as “binds”.
